Results: patent US20180201654A1, “PEPTIDE INHIBITORS OF HAUSP DEUBIQUITINASE” (priority 2012, published 2018)

Molecular target: HAUSP TRAF domain (HAUSP^62-205) (human), Q93009
Assay: ITC, titration against the HAUSP TRAF domain, 20 C

Sequence of HAUSP TRAF domain (HAUSP^62-205) (human), Q93009 (Q93009 62-205): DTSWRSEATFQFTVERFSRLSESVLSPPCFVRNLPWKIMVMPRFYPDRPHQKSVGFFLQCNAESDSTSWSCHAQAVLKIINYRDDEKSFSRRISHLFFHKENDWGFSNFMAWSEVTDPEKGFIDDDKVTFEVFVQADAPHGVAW

EGASTSGM (modifications not checked) [vIRF4^209-216 peptide] showed a Ka of 100000 M⁻¹, a TΔS of -43.1 kJ/mol and a n of 0.81. It also gave a ΔG of -28.2 kJ/mol and a ΔH of -71.4 kJ/mol.

EQGPADDPGEGPSTG (modifications not checked) [EBNA1^435-449 peptide] showed a Ka of 2.1e+06 M⁻¹, a Kd of 0.48 µM and a TΔS of -36.4 kJ/mol. It also gave a n of 0.81, a ΔG of -35.5 kJ/mol and a ΔH of -71.8 kJ/mol.
